Reference: the RNAGym collection of RNA variant scans (doi:10.7554/elife.80360)

B1: Hammerhead Ribozyme (parent)
chain: ACCGGAUGUGCUUUCCGGUCUGAUGAGUCCGUGAGGACGAAACAG

Variants of: B1
Experiment: self-cleavage, relative activity (ratio to wild type); higher = more cleavage; co-transcriptional

Variant | self-cleavage
C3U A41G | 0.354
C3U A41U | 0.378
C3U A42C | 0.406
C3U A42G | 0.393
C3U A42U | 0.38
C3U A44C | 0.522
C3U A44G | 1.49
C3U A44U | 0.592
C3U C11A | 1.16
C3U C11G | 1.25
C3U C11U | 0.504
C3U C15A | 0.486
C3U C15G | 0.382
C3U C15U | 0.984
C3U C16A | 0.476
C3U C16G | 0.492
C3U C16U | 0.955
C3U C20A | 0.465
C3U C20G | 0.306
C3U C20U | 0.523
C3U C29A | 0.593

Variant | self-cleavage
C3U C29G | 0.594
C3U C29U | 0.926
C3U C30A | 1.05
C3U C30G | 0.727
C3U C30U | 0.929
C3U C38A | 0.577
C3U C38G | 0.745
C3U C38U | 0.999
C3U C43A | 0.344
C3U C43G | 0.385
C3U C43U | 0.492
C3U G4A | 0.387
C3U G4C | 0.3
C3U G4U | 0.302
C3U G5A | 0.491
C3U G5C | 0.351
C3U G5U | 1.4
C3U G8A | 1.25
C3U G8C | 0.936
C3U G8U | 0.945
C3U G10A | 1.47

Variant | self-cleavage
C3U G10C | 1.05
C3U G10U | 1.22
C3U G17A | 1.03
C3U G17C | 0.675
C3U G17U | 0.866
C3U G18A | 0.412
C3U G18C | 0.472
C3U G18U | 0.453
C3U G22A | 0.381
C3U G22C | 0.341
C3U G22U | 0.381
C3U G25A | 0.368
C3U G25C | 0.315
C3U G25U | 0.345
C3U G27A | 0.93
C3U G27C | 0.599
C3U G27U | 0.554
C3U G31A | 1.06
C3U G31C | 0.974
C3U G31U | 1.17
C3U G33A | 0.953

Variant | self-cleavage
C3U G33C | 0.957
C3U G33U | 0.991
C3U G35A | 0.487
C3U G35C | 0.625
C3U G35U | 0.761
C3U G36A | 0.617
C3U G36C | 0.424
C3U G36U | 0.491
C3U G39A | 0.309
C3U G39C | 0.462
C3U G39U | 0.343
C3U G45A | 0.468
C3U G45C | 0.579
C3U G45U | 0.599
C3U U7A | 1.26
C3U U7C | 0.743
C3U U7G | 1.25
C3U U9A | 1.03
C3U U9C | 1.08
C3U U9G | 0.657
